Molecular target: H1G101C, a mutant of X. laevis linker histone H1°, labeled with Cy5 (Xenopus laevis) (UniProt P22844)

Chain of N-terminally His6-tagged yeast Nap1 (P25293 whole entry): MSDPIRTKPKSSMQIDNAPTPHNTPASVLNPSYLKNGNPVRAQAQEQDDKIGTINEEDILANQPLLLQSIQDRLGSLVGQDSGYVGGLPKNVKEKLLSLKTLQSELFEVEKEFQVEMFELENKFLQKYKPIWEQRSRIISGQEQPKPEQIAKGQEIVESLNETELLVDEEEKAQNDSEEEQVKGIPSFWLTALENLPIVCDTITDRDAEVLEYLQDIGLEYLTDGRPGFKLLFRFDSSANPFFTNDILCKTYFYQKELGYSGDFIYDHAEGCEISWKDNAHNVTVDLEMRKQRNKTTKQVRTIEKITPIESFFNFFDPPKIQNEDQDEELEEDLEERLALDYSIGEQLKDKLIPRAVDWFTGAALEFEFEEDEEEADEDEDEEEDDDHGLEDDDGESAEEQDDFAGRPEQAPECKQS

percent of nucleosomes still bound with H1 with 60 nM Nap1: 17.5%
Substance: N-terminally His6-tagged yeast Nap1 (from UniProt P25293 1-417) (natural protein)
